From patent CN117736314A (ADVACCINE SUZHOU BIOPHARMACEUTICAL CO LTD; UNIV FUDAN, dated 2024)

Target: SARS-CoV-2野生型(WT) S蛋白 (病毒颗粒上) (SARS-CoV-2, UniProt P0DTC2 14-1273)
Assay: cell-based or functional assay

B1: 抗体09C7 (antibody, V domains shown)
VH: QVTLRESGPTLVKPKQTLTLTCTFSGFSLSTPGGGVGWIRQPPGKALEWLALIYWDDDKRYSPSLKSSLTITKDTSKNQVVLTMTNMDPVDTATYYCARLTAADTIFDCWGQGTLVTV
VL: QSALTQPASVSGSPGLSITISCTATSSDVGAYNYVSWYQQHPGQAPKLMIYDVSKRPSGVSNRFSGSKSANTASLTISGLQAEDEADYYCSSYTTTSVVFGGGTKLTVL
In the case of B1, the “IC50, pseudovirus neutralisation (luciferase, Huh-7 cells)” value is reported as 4 ng/mL.
